The text below walks through data of paper PMC5715081, “Purification and functional comparison of nine human Aquaporins produced in Saccharomyces cerevisiae for the purpose of biophysical characterization” (Scientific Reports, 2017).

The series concerns the molecule itself. As to the kind of experiment: SDS-PAGE (SDS-resistant oligomers); peak fractions of Ni-affinity purified, detergent solubilised AQP-TEV-GFP-His10 fusions separated by SDS-PAGE; in-gel fluorescence and Coomassie staining.

B1: human AQP2-TEV-GFP-His10 fusion (natural protein, UniProt P41181 1-271, looked up)
chain: MWELRSIAFSRAVFAEFLATLLFVFFGLGSALNWPQALPSVLQIAMAFGLGIGTLVQALGHISGAHINPAVTVACLVGCHVSVLRAAFYVAAQLLGAVAGAALLHEITPADIRGDLAVNALSNSTTAGQAVTVELFLTLQLVLCIFASTDERRGENPGTPALSIGFSVALGHLLGIHYTGCSMNPARSLAPAVVTGKFDDHWVFWIGPLVGAILGSLLYNYVLFPPAKSLSERLAVLKGLEPDTDWEEREVRRRQSVELHSPQSLPRGTKA
notes: Aquaporin 2, human, cDNA codon optimized for S. cerevisiae; primers run from the start codon to the last codon; also called AQP2-GFP; APQ2-GFP; not shown: TEV cleavage site, C-terminal, kept; yeGFP, C-terminal, kept; His10, C-terminal, kept
Take B1: the binding result is “binds”.

B2: human AQP6-TEV-GFP-His10 fusion (natural protein, UniProt Q13520 1-282, looked up)
chain: MDAVEPGGRGWASMLACRLWKAISRALFAEFLATGLYVFFGVGSVMRWPTALPSVLQIAITFNLVTAMAVQVTWKASGAHANPAVTLAFLVGSHISLPRAVAYVAAQLVGATVGAALLYGVMPGDIRETLGINVVRNSVSTGQAVAVELLLTLQLVLCVFASTDSRQTSGSPATMIGISVALGHLIGIHFTGCSMNPARSFGPAIIIGKFTVHWVFWVGPLMGALLASLIYNFVLFPDTKTLAQRLAILTGTVEVGTGAGAGAEPLKKESQPGSGAVEMESV
notes: Aquaporin 6, human, cDNA codon optimized for S. cerevisiae; primers run from the start codon to the last codon; also called AQP6-GFP; Aquaporin 6; not shown: TEV cleavage site, C-terminal, kept; yeGFP, C-terminal, kept; His10, C-terminal, kept
Consider B2, for which the binding result was “binds”.

B3: human AQP9-TEV-GFP-His10 fusion (natural protein, UniProt O43315 1-295, looked up)
chain: MQPEGAEKGKSFKQRLVLKSSLAKETLSEFLGTFILIVLGCGCVAQAILSRGRFGGVITINVGFSMAVAMAIYVAGGVSGGHINPAVSLAMCLFGRMKWFKLPFYVGAQFLGAFVGAATVFGIYYDGLMSFAGGKLLIVGENATAHIFATYPAPYLSLANAFADQVVATMILLIIVFAIFDSRNLGAPRGLEPIAIGLLIIVIASSLGLNSGCAMNPARDLSPRLFTALAGWGFEVFRAGNNFWWIPVVGPLVGAVIGGLIYVLVIEIHHPEPDSVFKTEQSEDKPEKYELSVIM
notes: Aquaporin 9, human, cDNA codon optimized for S. cerevisiae; primers run from the start codon to the last codon; also called AQP9-GFP; Aquaporin 9; not shown: TEV cleavage site, C-terminal, kept; yeGFP, C-terminal, kept; His10, C-terminal, kept
On to B3, for which the binding result was “binds”.
